The supplement of paper PMC10724198
± gives the standard deviation of the averaged measurements.

Tested on: Saccharomyces cerevisiae
Test: protein stability index of tFT-peptide fusion (C-terminal peptide) (PSI (0-1 scale)); higher = more stable (slower turnover)
Details: genetic background: wild type; temperature: 30 C
Experimental: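 Multiplexed protein stability (MPS) profiling in S. cerevisiae. Random 12-aa peptides (tFT-X12 library) are fused to the C-terminus of a sfGFP-mCherry tandem fluorescent timer, after mCherry and a GGGS linker. Cells are FACS-sorted into 8 mCherry/sfGFP bins and deep-sequenced. The protein stability index (PSI) is the read-weighted bin average, scaled from 0 (unstable) to 1 (stable). Only peptides with >10 reads are reported; cells were grown at 30 °C in SC-His with glucose.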
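Note: PSI is a weighted mean of sequencing reads over stability bins, variants kept only with over 10 reads, mCherry proximal and sfGFP distal, peptide attached via GGGS linker.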

Sequence	protein stability index
GVLLCVDGSGGE	0.762 ± 0.054
GVMASLVRMSQG	0.679 ± 0.11
GVPAPVFCRSIF	0.618 ± 0.015
GVPPFSPPPPPH	0.683 ± 0.017
GVQCLVFIGRPK	0.69 ± 0.093
GVQEGGGVARGG	0.639 ± 0.018
GVRGALGCAGRV	0.679 ± 0.02
GVRNGFMSVSLY	0.651 ± 0.01
GVSGGDGSKCKE	0.682 ± 0.016
GVSLFFITQFET	0.712 ± 0.012
GVSPSCILPLIL	0.653 ± 0.011
GVSPSPPSPPPH	0.741 ± 0.062
GVSRGTGIGEGE	0.6774 ± 0.0039
GVVCWRFLLADV	0.596 ± 0.028
GVVGCSCLGCGF	0.717 ± 0.054
GVVGVGRCWGLV	0.628 ± 0.08
GVWCLDVYGRRC	0.6837 ± 0.0022
GVYWGEIDDVER	0.717 ± 0.015
GWAFDVAGQSAR	0.683 ± 0.0097
GWAGGEGWRGEG	0.6964 ± 0.0062
GWALGRGRRVSG	0.691 ± 0.033
GWDFRERLGGSG	0.71 ± 0.028
GWGGCDSVVVSG	0.697 ± 0.033
GWGGGCGCGRGI	0.687 ± 0.058
GWGVGGKVGQAG	0.6814 ± 0.0047

Sequence	protein stability index
GWLAERGPLEGG	0.728 ± 0.016
GWLVVLGLVQDL	0.559 ± 0.039
GWMTGMEERGGG	0.674 ± 0.053
GWNCTAFRTLHI	0.662 ± 0.061
GWNGAGSGCVRA	0.659 ± 0.068
GWREPQHGARGP	0.719 ± 0.022
GWRGGGSRELKW	0.743 ± 0.031
GWWCAGVREWTR	0.8 ± 0.013
GYCGRGCWGVGC	0.7093 ± 0.0056
GYLPPPDSLSSS	0.672 ± 0.023
GYLVECKRLCVW	0.588 ± 0.024
GYNARHILGRVG	0.699 ± 0.011
GYNCKWGRTNVT	0.6782 ± 0.0024
GYPASGVLIVFF	0.512 ± 0.026
GYPLRSHCLIVD	0.68 ± 0.0081
GYSPMGFSFFPV	0.673 ± 0.047
HAPLIPRFALIP	0.677 ± 0.013
HAPSRAPFPTAS	0.71 ± 0.067
HCFCFSVSSFFG	0.667 ± 0.026
HCFFSVPFRSGF	0.691 ± 0.045
HCLLLSLVFFFW	0.727 ± 0.03
HCSYSSSRPSPR	0.543 ± 0.043
HDWPQTTRADQS	0.677 ± 0.036
HFGRYLSSVFGV	0.679 ± 0.05
HFGSSLPPFCCI	0.76 ± 0.021

Sequence	protein stability index
HFKHLALVQQFP	0.69 ± 0.048
HFPPPPRPSAPP	0.681 ± 0.036
HFSPLILSSYTV	0.693 ± 0.037
HFVDAIPEGIHA	0.583 ± 0.023
HGCQGKVRQSHR	0.651 ± 0.039
HGCVWCSGLFGV	0.739 ± 0.029
HGHLGKFLGARE	0.689 ± 0.022
HGISLVWEVGEG	0.6439 ± 0.0035
HGLPSFANPGNF	0.716 ± 0.0095
HGNWGSSPVVSG	0.632 ± 0.055
HGPFLSNLLPDK	0.799 ± 0.085
HGVVGVFGLVSG	0.664 ± 0.0075
HIGSYTFILPSS	0.759 ± 0.064
HIHHVPGPHITA	0.706 ± 0.0088
HIHQDPGVIRWG	0.7216 ± 0.0015
HIHRGDRVIGDV	0.682 ± 0.01
HINVAVAKYSRQ	0.697 ± 0.047
HIPPFSPCPPTG	0.707 ± 0.02
HITMERTERTKY	0.7145 ± 0.0057
HKEHLDNPRLRP	0.714 ± 0.012
HKKAWVVTVGIS	0.602 ± 0.042
HKRCCIPTNDSQ	0.6991 ± 0.0063
HKTNTSRKSRRT	0.737 ± 0.12
HLCLACYRSVDM	0.688 ± 0.011
HLFYASCNSSAS	0.67112 ± 0.00053

Sequence	protein stability index
HLLCPLSPYICH	0.681 ± 0.02
HLLNPVRSPLPA	0.63 ± 0.063
HLPLPPRLLTHV	0.654 ± 0.042
HLPPPPTPFPLT	0.757 ± 0.16
HMCPWVWPVRDQ	0.691 ± 0.024
HMGTNSSTGDRN	0.636 ± 0.032
HNIRIDTSEKNR	0.6001 ± 0.0024
HNKTTNGNSHKN	0.715 ± 0.073
HPATPPPLLPPL	0.74479 ± 0.0007
HPFLPLFYHFPF	0.733 ± 0.037
HPPASPPHSPRS	0.63 ± 0.07
HPPKPHHPSNPC	0.691 ± 0.034
HPPLLPPPTPTS	0.752 ± 0.062
HPPLPPPLPGSP	0.761 ± 0.049
HPPPDPPFLAST	0.611 ± 0.042
HPPPVLSPPLSP	0.7107 ± 0.0033
HPPSPPPPPSRL	0.713 ± 0.071
HPPTLPPLPIPP	0.625 ± 0.0091
HPRPPAASSRTR	0.707 ± 0.044
HPRWTPPTQSAS	0.716 ± 0.049
HPSSLRLSSSAF	0.697 ± 0.014
HPVLGPNRVINI	0.71 ± 0.087
HPVPFSVASHLN	0.645 ± 0.03
HPWAFRIRTPRL	0.752 ± 0.09
HPYVTSHGRPLR	0.677 ± 0.024

Sequence	protein stability index
HQPSPFPKNSPT	0.717 ± 0.06
HRARWLSLGVTW	0.655 ± 0.035
HRCNCVFPENSL	0.693 ± 0.038
HRFEEGAPAPTE	0.704 ± 0.013
HRGIPMRDLAPN	0.675 ± 0.02
HRKPHRSKTPIH	0.693 ± 0.032
HRLSFPTQNIRG	0.677 ± 0.019
HRPPSVNRVSLM	0.692 ± 0.012
HRRCPILFKMAT	0.674 ± 0.12
HRSIDEGCSCCD	0.627 ± 0.093
HSCFPPLSTSVL	0.817 ± 0.12
HSGDLYFWGCRD	0.706 ± 0.061
HSLRRLSLYVSL	0.612 ± 0.086
HSPHSQYLLRID	0.72 ± 0.033
HSPPSPHFPHHH	0.6609 ± 0.0043
HSPVPPLPALPL	0.73 ± 0.024
HSQAPPPHPHAP	0.719 ± 0.024
HSRALLSVLPPH	0.7023 ± 0.0057
HSRPHTAPPYRA	0.643 ± 0.023
HSSDTAFSPLPP	0.6449 ± 0.0024
HSWFSWSVVSEL	0.7308 ± 0.0018
HSYLSPPLLASP	0.715 ± 0.069
HTEELKKSIKTQ	0.637 ± 0.082
HTEVDIVKRDRR	0.6896 ± 0.00098
HTGPTRPGHPLP	0.703 ± 0.03

Sequence	protein stability index
HTRLCFSPPRGI	0.686 ± 0.02
HTWARGLGVIRP	0.768 ± 0.012
HTYKADSLYTAR	0.748 ± 0.015
HVRLSCTRGMVI	0.695 ± 0.015
HVVVSPRSNRIL	0.7429 ± 0.0055
HWPSPLSPAVPG	0.804 ± 0.084
HWRWGGRSGGDR	0.707 ± 0.013
HYPLPPLLPPAP	0.674 ± 0.014
HYRSNFGRDSNL	0.762 ± 0.082
IAAPANQGHSKP	0.694 ± 0.042
IACDPNNRKDFT	0.627 ± 0.008
IACSVWYCCMVI	0.526 ± 0.014
IAEVGRFHLVVS	0.542 ± 0.04
IALWLYALSLAF	0.532 ± 0.016
ICCGLCRDCSCL	0.732 ± 0.069
ICEYGLKRKIHF	0.68199 ± 0.0006
ICRFSNRYSCPL	0.689 ± 0.016
ICSVGGFWLSCV	0.596 ± 0.032
ICVTSFSVWGCC	0.592 ± 0.028
IDLVLCIGLGYQ	0.62 ± 0.063
IDPTLPARAAPP	0.737 ± 0.029
